Non-standard residues stand in square brackets, D forms with d. dBpa = N[C@H](Cc1ccc(C(=O)c2ccccc2)cc1)C(=O)O; dPhe(3,4-F2) = N[C@H](Cc1ccc(F)c(F)c1)C(=O)O; Phe(4-F) = N[C@@H](Cc1ccc(F)cc1)C(=O)O; dPhe(3-F) = N[C@H](Cc1cccc(F)c1)C(=O)O; dPhe(4-F) = N[C@H](Cc1ccc(F)cc1)C(=O)O
Target: 20S core particle (CP) proteasome
Test: cell-based or functional assay

Binder | TAS-1 (percent stimulation of 20S CP)
cyclo(T[dK]F[dF]R[dA]) (SMILES C[C@H]1NC(=O)[C@H](CCCNC(=N)N)NC(=O)[C@@H](Cc2ccccc2)NC(=O)[C@H](Cc2ccccc2)NC(=O)[C@@H](CCCCN)NC(=O)[C@H]([C@@H](C)O)NC1=O) [CyPPS11] | 101 % of DMSO
cyclo(T[dI]F[dF]R[dA]) (SMILES CC[C@@H](C)[C@H]1NC(=O)[C@H]([C@@H](C)O)NC(=O)[C@@H](C)NC(=O)[C@H](CCCNC(=N)N)NC(=O)[C@@H](Cc2ccccc2)NC(=O)[C@H](Cc2ccccc2)NC1=O) [CyPPS12] | 124 % of DMSO
cyclo(T[dD]F[dF]R[dA]) (SMILES C[C@H]1NC(=O)[C@H](CCCNC(=N)N)NC(=O)[C@@H](Cc2ccccc2)NC(=O)[C@H](Cc2ccccc2)NC(=O)[C@@H](CC(=O)O)NC(=O)[C@H]([C@@H](C)O)NC1=O) [CyPPS10] | 173 % of DMSO
cyclo(A[dL]F[dF]R[dA]) (SMILES CC(C)C[C@H]1NC(=O)[C@H](C)NC(=O)[C@@H](C)NC(=O)[C@H](CCCNC(=N)N)NC(=O)[C@@H](Cc2ccccc2)NC(=O)[C@H](Cc2ccccc2)NC1=O) [CyPPS2] | 241 % of DMSO
cyclo(T[dL][Phe(4-F)][dF]R[dA]) (SMILES CC(C)C[C@H]1NC(=O)[C@H]([C@@H](C)O)NC(=O)[C@@H](C)NC(=O)[C@H](CCCNC(=N)N)NC(=O)[C@@H](Cc2ccccc2)NC(=O)[C@H](Cc2ccc(F)cc2)NC1=O) [CyPPS15] | 280 % of DMSO

Continued, values first:

TAS-1 (percent stimulation of 20S CP) | Binder
283 % of DMSO | cyclo(T[dL]F[dPhe(3,4-F2)]R[dA]) (SMILES CC(C)C[C@H]1NC(=O)[C@H]([C@@H](C)O)NC(=O)[C@@H](C)NC(=O)[C@H](CCCNC(=N)N)NC(=O)[C@@H](Cc2ccc(F)c(F)c2)NC(=O)[C@H](Cc2ccccc2)NC1=O) [CyPPS20]
278 % of DMSO | cyclo(T[dL]F[dBpa]R[dA]) (SMILES CC(C)C[C@H]1NC(=O)[C@H]([C@@H](C)O)NC(=O)[C@@H](C)NC(=O)[C@H](CCCNC(=N)N)NC(=O)[C@@H](Cc2ccc(C(=O)c3ccccc3)cc2)NC(=O)[C@H](Cc2ccccc2)NC1=O) [CyPPS21]
287 % of DMSO | cyclo(T[dL]F[dPhe(3-F)]R[dA]) (SMILES CC(C)C[C@H]1NC(=O)[C@H]([C@@H](C)O)NC(=O)[C@@H](C)NC(=O)[C@H](CCCNC(=N)N)NC(=O)[C@@H](Cc2cccc(F)c2)NC(=O)[C@H](Cc2ccccc2)NC1=O) [CyPPS19]
203 % of DMSO | cyclo(T[dL]F[dY]R[dA]) (SMILES CC(C)C[C@H]1NC(=O)[C@H]([C@@H](C)O)NC(=O)[C@@H](C)NC(=O)[C@H](CCCNC(=N)N)NC(=O)[C@@H](Cc2ccc(O)cc2)NC(=O)[C@H](Cc2ccccc2)NC1=O) [CyPPS17]
198 % of DMSO | cyclo(T[dL]Y[dF]R[dA]) (SMILES CC(C)C[C@H]1NC(=O)[C@H]([C@@H](C)O)NC(=O)[C@@H](C)NC(=O)[C@H](CCCNC(=N)N)NC(=O)[C@@H](Cc2ccccc2)NC(=O)[C@H](Cc2ccc(O)cc2)NC1=O) [CyPPS16]
246 % of DMSO | cyclo(T[dL]F[dPhe(4-F)]R[dA]) (SMILES CC(C)C[C@H]1NC(=O)[C@H]([C@@H](C)O)NC(=O)[C@@H](C)NC(=O)[C@H](CCCNC(=N)N)NC(=O)[C@@H](Cc2ccc(F)cc2)NC(=O)[C@H](Cc2ccccc2)NC1=O) [CyPPS18]

Source: patent US20250073302A1 (PURDUE RESEARCH FOUNDATION, published 2025)
